Publication PMC4497647

Key:
[1] = biological target: HIV-1 envelope (Env) of strain BG505 (subtype A) (HIV-1 subtype A) (UniProt Q2N0S6)
[2] = biological target: HIV-1 envelope (Env) of strain DH123 (subtype B) (HIV-1 subtype B)
[3] = biological target: HIV-1 envelope (Env) of strain JR-CSF (subtype B) (HIV-1 subtype B) (UniProt P20871)
[4] = biological target: HIV-1 envelope (Env) of strain JR-FL (subtype B) (HIV-1 subtype B) (UniProt Q75760)
[5] = biological target: HIV-1 envelope (Env) of strain PVO.4 (subtype B) (HIV-1 subtype B)
[6] = biological target: HIV-1 envelope (Env) of strain REJO (subtype B) (HIV-1 subtype B)
[7] = biological target: HIV-1 envelope (Env) of strain SF162 (subtype B) (HIV-1 subtype B) (UniProt P19550)
[8] = biological target: HIV-1 envelope (Env) of strain THRO (subtype B) (HIV-1 subtype B)
[9] = biological target: HIV-1 envelope (Env) of strain ZM109 (subtype C) (HIV-1 subtype C)
[10] = biological target: HIV-1 envelope (Env) of strain ZM214 (subtype C) (HIV-1 subtype C)
[11] = biological target: HIV-1 envelope (Env) of strain ZM53 (subtype C) (HIV-1 subtype C)

Substance: fusion inhibitor T-20 (peptide)
- reduction in inhibitory activity during cell-cell transmission (293-T donor to A3.01-CCR5) against free virus infection of A3.01-CCR5 (fold change IC50) [1]: < 10 fold
- reduction in inhibitory activity during cell-cell transmission (293-T donor to A3.01-CCR5) against free virus infection of A3.01-CCR5 (fold change IC50) [2]: < 10 fold
- reduction in inhibitory activity during cell-cell transmission (293-T donor to A3.01-CCR5) against free virus infection of A3.01-CCR5 (fold change IC50) [3]: < 10 fold
- reduction in inhibitory activity during cell-cell transmission (293-T donor to A3.01-CCR5) against free virus infection of A3.01-CCR5 (fold change IC50) [4]: < 10 fold
- reduction in inhibitory activity during cell-cell transmission (293-T donor to A3.01-CCR5) against free virus infection of A3.01-CCR5 (fold change IC50) [5]: < 10 fold
- reduction in inhibitory activity during cell-cell transmission (293-T donor to A3.01-CCR5) against free virus infection of A3.01-CCR5 (fold change IC50) [6]: < 10 fold
- reduction in inhibitory activity during cell-cell transmission (293-T donor to A3.01-CCR5) against free virus infection of A3.01-CCR5 (fold change IC50) [7]: < 10 fold
- median fold reduction for T-20 in cell-cell transmission (293-T donor to A3.01-CCR5) against free virus infection [8]: 1.6 fold
- reduction in inhibitory activity during cell-cell transmission (293-T donor to A3.01-CCR5) against free virus infection of A3.01-CCR5 (fold change IC50) [9]: < 10 fold
- median fold reduction for T-20 in cell-cell transmission (293-T donor to A3.01-CCR5) against free virus infection [10]: 5.3 fold
- reduction in inhibitory activity during cell-cell transmission (293-T donor to A3.01-CCR5) against free virus infection of A3.01-CCR5 (fold change IC50) [11]: < 10 fold
